Patent publication US20260055369A1, “METHOD FOR GENERATING CELLS OF THE T CELL LINEAGE WITH ENGINEERING BROADLY REACTIVE HUMAN NOTCH LIGAND” (H. Lee Moffitt Cancer Center and Research Institute, Inc., priority 2022, published 2026)

Tests used:
Notch1 [1] = assay: Notch activation assay with ligands non-specifically adsorbed to plates (CHO-K1 N1-Gal4 fluorescent reporter); assay type: cell-based; settings: for EC50 for Notch1 activation: non-specifically adsorbed to tissue culture plates, 24 hours
Procedure: On day one, 2-fold serial dilutions of non-biotinylated DLL4 recombinant proteins (N-EGF5) were prepared in 100 μL of DPBS and used to coat 96-well plates (Coastar) for 1 hour at 37° C. WT DLL4 started at 66.56 ng/mm^2 and Delta^MAX at 0.33 ng/mm^2. Then, the wells were washed three times with 200 μL of DPBS to remove unbound proteins. Next, CHO-K1 N1-Gal4 cells in culture were detached with trypsin-EDTA 0.25% (Gibco) and manually counted. Appropriate dilutions were prepared in α-MEM media to ensure 30,000 CHO-K1 N1-Gal4 cells per well in 200 μL. Ligand-coated plates and reporter cell lines were incubated for 24 hours at 37° C. and 5% CO2. On day two, CHO-K1 N1-Gal4 cells were washed with 200 μL DPBS, detached with 30 μL of trypsin-EDTA 0.25%, and quenched with 200 μL of α-MEM media. Finally, cells were resuspended and H2B-mCitrine signal was measured by flow cytometry (BD Accuri C6 plus). CHO-K1 N1-Gal4 and ligand-lacking wells were used as a negative control. The measurements represent the mean fluorescent intensity as percentage of Notch activation±s.d. of three biological replicates. Notch activation was reference-subtracted from a well coated with 0.5% BSA containing CHO-K1 N1-Gal4 cells. Gating strategies for this experiment are detailed in FIG. 13A.
Target sequence in this assay (P46531 19-1664 limits assumed): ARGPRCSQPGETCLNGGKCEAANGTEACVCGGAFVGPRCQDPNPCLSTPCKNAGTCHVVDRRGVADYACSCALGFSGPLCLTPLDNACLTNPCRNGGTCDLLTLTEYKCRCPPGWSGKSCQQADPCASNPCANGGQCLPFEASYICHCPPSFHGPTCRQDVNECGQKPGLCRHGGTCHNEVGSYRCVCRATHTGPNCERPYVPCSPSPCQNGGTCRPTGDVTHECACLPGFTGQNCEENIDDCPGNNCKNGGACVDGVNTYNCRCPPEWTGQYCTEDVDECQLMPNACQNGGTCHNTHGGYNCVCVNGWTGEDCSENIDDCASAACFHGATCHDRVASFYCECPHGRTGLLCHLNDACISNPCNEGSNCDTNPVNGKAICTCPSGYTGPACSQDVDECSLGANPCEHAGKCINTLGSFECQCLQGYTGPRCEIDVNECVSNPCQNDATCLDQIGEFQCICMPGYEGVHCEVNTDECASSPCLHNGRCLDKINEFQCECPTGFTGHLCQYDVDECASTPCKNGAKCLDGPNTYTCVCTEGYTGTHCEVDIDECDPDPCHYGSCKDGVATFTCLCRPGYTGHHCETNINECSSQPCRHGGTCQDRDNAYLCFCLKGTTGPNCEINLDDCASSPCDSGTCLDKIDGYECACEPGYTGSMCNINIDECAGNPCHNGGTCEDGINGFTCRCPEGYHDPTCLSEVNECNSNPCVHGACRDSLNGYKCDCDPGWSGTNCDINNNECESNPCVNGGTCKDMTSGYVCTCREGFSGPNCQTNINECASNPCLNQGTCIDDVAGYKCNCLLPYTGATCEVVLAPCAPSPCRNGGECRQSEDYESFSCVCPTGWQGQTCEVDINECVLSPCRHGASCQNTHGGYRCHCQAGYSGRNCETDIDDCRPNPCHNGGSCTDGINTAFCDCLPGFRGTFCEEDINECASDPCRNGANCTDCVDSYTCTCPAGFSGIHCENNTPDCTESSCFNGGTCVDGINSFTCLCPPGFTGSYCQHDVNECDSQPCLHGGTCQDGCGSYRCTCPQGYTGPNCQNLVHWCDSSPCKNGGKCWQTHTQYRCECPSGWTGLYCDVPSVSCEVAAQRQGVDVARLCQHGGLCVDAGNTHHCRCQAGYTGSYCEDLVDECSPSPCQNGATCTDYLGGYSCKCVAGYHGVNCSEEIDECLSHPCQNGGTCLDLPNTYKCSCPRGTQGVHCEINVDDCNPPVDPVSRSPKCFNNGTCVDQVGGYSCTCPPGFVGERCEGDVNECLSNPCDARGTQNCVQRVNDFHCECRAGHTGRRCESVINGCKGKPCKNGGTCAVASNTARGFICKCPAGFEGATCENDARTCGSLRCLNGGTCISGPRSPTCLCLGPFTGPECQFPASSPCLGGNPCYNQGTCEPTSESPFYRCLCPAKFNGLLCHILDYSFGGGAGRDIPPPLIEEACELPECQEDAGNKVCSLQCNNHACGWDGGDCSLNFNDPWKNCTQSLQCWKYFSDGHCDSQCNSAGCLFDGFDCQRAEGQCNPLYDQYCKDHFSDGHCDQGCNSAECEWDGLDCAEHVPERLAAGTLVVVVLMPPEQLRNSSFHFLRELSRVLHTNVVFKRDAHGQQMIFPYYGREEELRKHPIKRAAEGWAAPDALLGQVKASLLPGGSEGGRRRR
Target sequence in this assay (P46531 1665-1756 limits assumed): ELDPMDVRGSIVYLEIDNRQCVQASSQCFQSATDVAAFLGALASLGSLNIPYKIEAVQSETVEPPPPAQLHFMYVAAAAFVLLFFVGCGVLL

Notch1 [2] = assay: Notch inhibition assay with soluble antagonists and WT DLL4 coated plates (CHO-K1 N1-Gal4); assay type: cell-based
Procedure: For CHO-K1 N1-Gal4 reporter cells, on day one, biotinylated WT DLL4 was pre-coated in 96-well plates at 50 nM following the same protocol described above. Next, CHO-K1 N1-Gal4 cells were detached with trypsin-EDTA, washed, and diluted at 200,000 cells/mL in α-MEM media. Ten-fold serial dilutions of non-biotinylated DLL4 ligands (N-EGF5) were prepared in DPBS starting at 600 nM. Next, soluble inhibitors were mixed in ratio 1:1 with CHO-K1 N1-Gal4 200,000 cells/mL stocks for 15 min at room temperature to pre-block Notch receptors. Two hundred microliters of inhibition reactions containing 20,000 reporter cells were added to WT DLL4-coated wells, and plates incubated for 24 hours at 37° C. and 5% CO2. When DAPT (gamma-secretase inhibitor, Sigma) and BB-94 (ADAM metalloprotease inhibitor, Sigma) were used, stock solutions were prepared at 100 μM in 8% DMSO. Appropriate DMSO controls were included to test Notch activation and cell viability. Final DMSO concentration in the experiment was kept below 1%. For comparisons of Delta^MAX with DAPT and BB-94, soluble inhibitors were serially diluted in DPBS using 9-folds, incubated with CHO-K1 N1-Gal4 reporter cells, and added to wells as described above. On day two, assay plates were washed with 200 μL of DPBS, CHO-K1 N1-Gal4 cells detached with trypsin-EDTA, quenched with 200 μL of α-MEM media, and Notch activation measured by flow cytometry (BD Accuri C6 Plus). The data represent the mean fluorescent intensity as percentage of Notch activation, relative to Notch activation in the absence of inhibitors±s.d. of three independent biological replicates.
Target sequence in this assay (P46531 19-1664 limits assumed): as the sequence (P46531 19-1664 limits assumed) above
Target sequence in this assay (P46531 1665-1756 limits assumed): as the sequence (P46531 1665-1756 limits assumed) above

Notch1 [3] = assay: Notch inhibition assay in co-culture format (CHO-K1 N1-Gal4 with HEK293T expressing WT DLL4); assay type: cell-based; settings: co-culture 1:1 with HEK293T expressing WT DLL4; read-out: IC50 for inhibition of Notch1 activation by cellular DLL4
Procedure: For inhibition of CHO-K1 N1-Gal4 cells with DAPT and Delta^MAX, the experiment was set-up following the protocol described above with the exception that CHO-K1 N1-Gal4 reporters were incubated with HEK293T-expressing WT DLL4 for Notch activation. Three-fold serial dilutions of soluble Delta^MAX and DAPT were prepared in DPBS starting at 6,000 nM. For DAPT, a stock solution of 100 μM in 8% DMSO was prepared before serial dilutions in DPBS. Appropriate DMSO controls were also assayed for cytotoxicity. Final DMSO concentration in the wells was maintained below 1%. Thirty thousand signal senders and pre-blocked signal receivers (100 μL each) were incubated for 24 hours at 37° C. and 5% CO2 before analysis by flow cytometry. Maximum Notch activation (100%) was set in the absence of soluble inhibitors and normalized to wells containing CHO-K1 N1-Gal4 cells and HEK293T lacking expression of WT DLL4. Mean fluorescence intensity is represented as percentage relative to Notch activation in the absence of inhibitors±s.d. of three independent biological replicates.

Notch3 = assay: Notch inhibition assay in co-culture format (U2OS Notch3 reporter with HEK293T expressing DLL4, DLL1, JAG1 or JAG2); assay type: cell-based, human; settings: 3 μM soluble protein; signaling by DLL1, DLL4, JAG1 and JAG2 expressing HEK293T cells
Notch3, sequence (Q9UM47 197-505 limits assumed): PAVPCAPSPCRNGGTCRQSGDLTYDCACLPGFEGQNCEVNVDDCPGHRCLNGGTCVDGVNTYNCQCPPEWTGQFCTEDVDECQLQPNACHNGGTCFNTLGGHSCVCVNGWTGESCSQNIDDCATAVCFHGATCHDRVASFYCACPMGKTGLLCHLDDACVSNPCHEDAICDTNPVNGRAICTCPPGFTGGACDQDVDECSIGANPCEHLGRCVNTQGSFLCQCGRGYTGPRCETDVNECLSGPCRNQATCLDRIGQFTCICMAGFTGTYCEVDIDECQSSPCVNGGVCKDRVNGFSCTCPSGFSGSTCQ
Procedure: For inhibition of Notch ligand-expressing cell lines, on day one, U2OS Notch3 reporter cells (signal receivers) were detached with trypsin-EDTA, washed with DPBS, and added to 6-well plates. On day two, U2OS cells were transfected as described above. On day three, signal receiver cells were detached with trypsin-EDTA, and dilutions of 400,000 cells/mL were prepared in DMEM. On the one hand, soluble DLL4 variants were prepared at 6,000 nM in DPBS, combined in 1:1 dilution with signal receiver cells, and incubated for 15 min at RT. On the other hand, HEK293T-expressing WT DLL4, DLL1, JAG1, JAG2 were detached with trypsin-EDTA, washed with DPBS and 200,000 cells/mL stocks prepared in DMEM. One hundred microliters of both signal senders and pre-blocked signal receivers were combined in cell ratio 1:1 and incubated for 24 hours at 37° C., and 5% CO2. On day four, luciferase firefly and Renilla signals were determined with Dual-Glo luciferase assay system (Promega) using a GloMax luminometer (Promega). Doxycycline at 2 μg/mL was kept for all the conditions. A luminescence ratio firefly:Renilla was determined for every well. Notch activation of each Notch3:ligand pair was normalized to the signal of Notch3 reporters in the presence of HEK293T lacking ligands. Each Notch signaling pair was set at 100% activation and soluble DLL4 treatments were relative to its corresponding pair. […]

Row | Molecule | Emax greater than that induced by WT DLL4 (Notch1 [1]; non-specific adsorption) | EC50 for Notch1 activation (Notch1 [1]) | improvement in Notch activation efficiency vs WT DLL4 (Notch1 [1]; ratio of EC50, non-specific adsorption) | IC50 (Notch1 [2]; comparison with DAPT and BB-94, plates coated with 50 nM WT DLL4, FIG. 4B, read-out: IC50 for inhibition of Notch1 activation) | potency relative to BB-94 (Notch1 [2]; ratio of IC50) | potency relative to DAPT (Notch1 [2]; ratio of IC50) | IC50 (Notch1 [2]; soluble ECD, plates coated with 50 nM WT DLL4, 24 hours, FIG. 4A, read-out: IC50 for inhibition of Notch1 signaling) | IC50 (Notch1 [3]) | reduction in reporter signal (Notch3) | reduction of reporter activity (Notch1 [2]; soluble, highest concentration tested (300 nM))
1 | Delta^MAX: engineered human DLL4 consensus variant with 10 mutations combining DLL4.v1 and DLL4.v2 mutations; sequence matches SEQ ID NO: 4/10 (protein) SSVFQLQLQEFINERGVLASGRPCEPGCRTFFRVCLKHFQAVVSPGPCTFGTVSTPVLGTNSFAVRDDSSGGGRNPLQLPLNFTWPGTFSLIIEAWHAPGDDLRPEALPPDALISKFAIQGSLAVGQNWLLDEQTSTLTRLRYSYRVICSDNYYGDNCSRLCKKRNDYFGHYVCQPDGNPSCLPGWTGEYCQQPICLSGCHEQNGYCSKPAECLCRPGWQGRLCNECIPHPGCRHGTCSTPWQCLCDEGWGGLYCDQDLNYCTHHSPCKNGATCRNSGPRSYTCTCRPGYTGVDCELELSECDSNPCRNGGSCKDQEDGYHCLCPPGYYGLHCEHSTLSCADSPCFNGGSCRERNQGANYACECPPNFTGSNCE | 20% | 0.009 ng/mm^2 | 250 fold | 1 nM | 1,000 fold | 40 fold | 0.6 nM | 400 nM | 70-85% | –
2 | WT DLL4: human wild-type Delta-like 4 (N-EGF5, residues 27-400), SEQ ID NO: 1 (protein) SGVFQLQLQEFINERGVLASGRPCEPGCRTFFRVCLKHFQAVVSPGPCTFGTVSTPVLGTNSFAVRDDSSGGGRNPLQLPFNFTWPGTFSLIIEAWHAPGDDLRPEALPPDALISKIAIQGSLAVGQNWLLDEQTSTLTRLRYSYRVICSDNYYGDNCSRLCKKRNDHFGHYVCQPDGNLSCLPGWTGEYCQQPICLSGCHEQNGYCSKPAECLCRPGWQGRLCNECIPHNGCRHGTCSTPWQCTCDEGWGGLFCDQDLNYCTHHSPCKNGATCSNSGQRSYTCTCRPGYTGVDCELELSECDSNPCRNGGSCKDQEDGYHCLCPPGYYGLHCEHSTLSCADSPCFNGGSCRERNQGANYACECPPNFTGSNCE | – | 2.3 ng/mm^2 | – | – | – | – | – | – | 10-40% | ~25%
